Measurements: the DeepSol protein solubility set

Assay: soluble on expression in E. coli; label from the status in PepcDB or PDB records

Soluble on expression in E. coli, not soluble:
MGYAVLHLEKAKGTDSRMSAHIERTVHPKNADRTRTHLNRELVQFPEGVRNRTQAIAQRIETAGIRRKVSANQVKAIRILLTGSNKDMKQMEAEGRIEDWCNDSLKWIRETYGEQNLVSAVLHMDEKTPHIHATVIPIMTGERRKAGQEEQNGKKKYRKKNPQDVRLCADDVMARHRLKHYQDTYAQAMNKYGLQRGVDGSLAKHISTMQYYKQLVEQQDSLQENIENLLGLEEEAMKKLKQVKGEINVQKMKGAAVNATTAIADGVSSLFGGSKVKRLEAENENLKRNIVNLQKQVQAEQREQTKMENRHSSEINRVDRSYRQKIAEYDNRLELIDTYFPIVKELIPIAEQCREVGFTEELTRRIVSLQPVEFKGRLYSKEYKEKFRTEHSTATVERTPQEKGKFRLCIDGIPILDWFRKKFQEIKEKLGLNTPVENKQRKGLKILEHHHHHH
MGSDKIHHHHHHMKLTAQIHIEKMAYELRDHAHAVIKNVLLMSNISTLSLQLAMRELAQHSRVALHFHPDQIDNRGLTVVDGLLRDGVYKSQFETHVSNGHLSPELGGSRDHWENQLFGHSYSGIKHRPKYGALDFGLCPLGPAPRFGSCYLVTHPQILSRCTFSYMDSHRLPKEKGTIKCFDAILAALLSESFERQYALGVSGLKPSKLIEHFSQHLTDDISRRFDLVPSGNLDHYIEAQIHGDVSLDQDIAILVADPSYMGTAIGDSLIALCHEYGIELHWHQGRQINVAQIPDDFRGAAMPILAQSLAENELINAEIIGRAAYQLQKQPASWSERGAHSKKRQDLKLLWHVLVKYGESTGQ
MAIGGWIKLYRTIQDHWIWENPQYLKWWLDLIFMANHQDRKILFDGELKTVKVGERITSEKKLSERWEVSRNTVRKFLDLLVKDDMIELSRSRQNGTWYKVSNYAEYQNFSEIKKQRTEQRREQQAAHQTEQRTEHKQEPKEPKNLRNNNNNNKGAFIRSIWENNGFGLMSSKTMTDFDYWISDFEKIGASQKEAEQLIVKAIEIAIDANARNYNYINAILKDWEQRGFKSVEEREAARKQKKTTKKQKSNTGHSDYDDLGF
MFFSVVIPTYNRLPILEKCLRALEQQTFDETLISGYEIVVVDDGSTDGTLAWLDGHCQGFPHVRTWEQDHQGPAAARNLGVKEAAGDTIIFIDSDLVVTDIFLQAHAEGLQRGQKQYNSDRVFTYGAVVNTCNFDSPQSEPYKLTDYSAAFFATGNVAIAKQWLLEAGLFDTGFQLYGWEDLELGVRLKNLGLKLVKCPRAVGYHWHPPFSLQQIPKLIDQEIQRGRMGVLFYQKHPTWEVRLMIQMTRLHWFLWGLLSLGGRLNEKTMAPLLQWLIDHDRPQLALEIARIFLNWYNVQGVYAAFAESQSSHLEHHHHHH
MDSTARGHAPLCRTSNQRGLGTRLNPYYQSTPHQPMVQSMSNPIGSYGEQGNAQIIGSSGQVLSTGPPPGLAPVQCNDFDSCYSSCDDISHPSLSRESSDPSKIDDDQTAPMIRYPAPEVVEFATKLGYSTEQLSHVLNTIGVDSRMDDVLSELVKMGLPGGKPENSGKSGSRNSPEPIMTSSASSSSASSSSSHRPIRQSVSIATSSPATSSSTPSKYNPDPSLRAVVVDGSNVAMLHGRKEVFSCAGLRECLNYFLERGHPEVLIFIPQYRREQPRSDSPITDQHILQEIERHIIYTPSRNVNGRRVVCHDDRYILRTAELKDAVIVSNDEYRDLTRENPAWRKIVEERLLMFTFVEDKSVF
MQQQETFRHILSVLVQDVDGIISRVSAMFTRRSFSLVSFVSGKTEMHGINRITIVVDASTQDIEQITKQLNKLIPVLKVVRLDEDVTVARALMLVKVSADASNRPQVVDAAKIFRAHVVDVAPDSVVIEATGNKGKLRALLDVLEPFGIRELISSGQIALNRGSKTMAPQSSRS
RAGHIEVAEVEGMSFPVKLDTGADVSSINAKDIKLFQKDGKDMVSFTYENDLGMQKAFTREVVDVMKITAKKGEKANVRPVVEMHVKLGELEKKIRVNLQDRGRFHYSMILGKNFLKHGALVASETNYIVTKKPDYEK
MERRLGVRAWVKENRGSFQPPVCNKLMHQEQLKVMFVGGPNTRKDYHIEEGEEVFYQLEGDMVLRVLEQGKHRDVVIRQGEIFLLPARVPHSPQRFANTVGLVVERRRLETELDGLRYYVGDTMDVLFEKWFYCKDLGTQLAPIIQEFFSSEQYRTGKPIPDQLLKEPPFPLSTRSIMEPMSLDAWLDSHHRELQAGTPLSLFGDTYETQVIAYGQGSSEGLRQNVDVWLWQLEGSSVVTMGGRRLSLAPDDSLLVLAGTSYAWERTQGSVALSVTQDPACKKPLGLEHHHHHH
MGSDKIHHHHHHMIRKIVEIDQEKCNGCGICVPACAEGAIRIENGKAVLAADNLCDGLGACLGECPLDAIRIIERDADEFDEAAVEAHLGQTSRESHHAAHQPAPVHGGCPGSRAMVLDRPATESVRDVPRQESRLRQWPVQLHLVPTSAPYFRNADLLIAADCVPFAYADFHREFLDGRAVVVGCPKLDDNRFYTEKLTELIRVNDLKSITVVRMEVPCCGGIVMAARQALAASSKDIPLREVTVGISGELKGA
MSLNKLCVAALSVNNFCDNREALYGVFDGDRNVEVPYLLQCTMSDILAEELQKTKNEEEYMVNTFIVMQRKLGTAGQKLGGAAVLCHIKHDPVDPGGSFTLTSANVGKCQTVLCRNGKPLPLSRSYIMSCEEELKRIKQHKAIITEDGKVNGVTESTRILGYTFLHPSVVPRPHVQSVLLTPQDEFFILGSKGLWDSLSVEEAVEAVRNVPDALAAAKKLCTLAQSYGCHDSISAVVVQLSVTEDEGHHHHHH
MGSDKIHHHHHHMNEIAGIPYVEASFDKNGQGPEEEVALPAGVTDLIIMSHGWNNNKSKAEDLYNGFFASFAAAAQPNDLSARKLVILGVFWPSREYDTSVAVSGTPATGGGGAALGGGNGGSIKRLEEKLDDMKEIFTEAEQKKLLDEAKALLPDLEEKASVRDLFVNKMRSLLDPSAAGKEDASNIFFKDGGNELMKNLKAEEEDLGEDVAGGGAALPLGVSTPARAEGGAAGLVEILSGFKAAAINLLNYTTYYEMKTRSGTVGKNGVAPLIDKLASQVERIHLIGHSFGCRVVTSAALGSKTDKIKSMILLQAAFSQNGFSKIEQGFYRAIVDNHRVKGPVLITHTPNDRAVGLAYPLASRISGDKTMAFGDKDDLFGAMGRNGAQKMEQGEAVEGKLLSVGGPYAFKANTYFNLEASDFIKNHNDIKGKEVGYVVRKVVATAGMG
MAHHHHHHMAEPNASGFRVIQILENYGVASSDIKKLMECGFYTVESAAYAPKKAILAVKGISENKAEKIMAECAKLVPMGFTSAVAYHEARKEIIMVTTGSREVDKLLGGGIETGSITELFGEFRTGKTQLCHTLCVTCQLPISQGGAEGMALYIDTEGTFRPERLVAVAERYKLDPEDVLANVACARAFNTDHQQQLLLQASAMMAENRFALIIVDSATALYRTDYSGRNELAARQMHLGKFLRSLHNLAEEYGVAVVVTNQVVANVDGSAQMFQADSKKPIGGHIMAHASTTRLSLRKGRGEQRIIKVYDSPCLAEAEAIFGIYDDGVGDARD

Soluble on expression in E. coli, soluble:
MSLKLRGHHLICLQFFRGEGYSGEFVENVKKIMERLESGETVEVVAGVDDICVACPYNRGYCGKDETSEERVREMDKAAVRLLGVSEKTTWREVAERIEKVLNEWRVFCEDCDWKEVCYGEGHHHHHH
GSHGGIEGVKGAASGVVGELARARLALDERGQKLSDLEERTAAMMSSADSFSKHAHEMMLKYK
MSLIIRKLFEFENAHIVRFCSSKRCKSSIHGHSYKVEVLLESKYLDNAGMVYDFGLLKTYIRQIIDSFDHAITLFKYDDAKYLEEMKKYSSRWICLPVNVSAENFCRVFFILIDALLKQTKMVNGEQGVTLQSIIVHETRTGYAQGFREDAYSELMPKISLQDIEFSNGIKAEWNDIDFYNKLKNEEIFINPKEEGHHHHHH
MNNNTTAPTYTLRGLQLIGWRDMQHALDYLFADGQLKQGTLVAINAEKMLTIEDNAEVRELINAAEFKYADGISVVRSVRKKYPQAQVSRVAGADLWEELMARAGKEGTPVFLVGGKPEVLAQTEAKLRNQWNVNIVGSQDGYFKPEQRQALFERIHASGAQIVTVAMGSPKQEIIMRDCRLVHPDALYMGVGGTYDVFTGHVKRAPKIWQTLGLEWLYRLLSQPSRIKRQLRLLRYLRWHYTGNL
SVKVVIEADGGSRGNPGPAGYGAVVWTADHSTVLAESKQAIGRATNNVAEYRGLIAGLDDAVKLGATEAAVLMDSKLVVEQMSGRWKVKHPDLLKLYVQAQALASQFRRINYEWVPRARNTYADRLANDAMDAAAQSAAAD
GPLGSPILELKEKIQPEILELIKQQRLNRLVEGTCFRKLNARRRQDKFWYCRLSPNHKVLHYGDLEESPQGEVPHDSLQDKLPVADIKAVVTGKDCPHMKEKGALKQNKEVLELAFSILYDSNCQLNFIAPDKHEYCIWTDGLNALLGK
MKDWQLPSHSGPYELRIEVQPKSHHRAHYETEGSRGAVKASAGGHPIVQLHGYLENEPLMLQLFIGTADDRLLRPHAFYQVHRITGKTVSTTSHEAILSNTKVLEIPLLPENSMRAVIDCAGILKLRNSDIELRKGETDIGRKNTRVRLVFRVHVPQPSGRTLSLQVASNPIECSQRS
GPGSMSHVKAFDPAAQARCDPYYKRNHMGHVVCTLCDVCCSDDNNFIKHLAGKTHSLQLERLERSANREKRLAEEEELNKEAMRRAEQEKATRELLLQQTSAPHASSVTSFAPFGRPEFHYCTEHDPELYQTKVWLEFYFPQAVEGARPLHRWRSAREQEVEKPPNDDVVYLLVACEGYMTVGLKFPSKLPRTSSGLTSWGGYGNAGSDEEKGRYRCSWDPVKKLYELFFIIG
MSLDTFKNKPLGDNFTLTDSNGNTITEADIRSKPSIIFFGFTMCPESCPTTLTNLDRWLTSLGADADKLGVWFVTVDPERDTPEVLHDYLSNFNHKIVGISGEPEKVHKMVDSFNIVAEKVPGTDGNYTYNHTAAIFLLKKGGKLAGVIPYKIEKNNEELRDNIAIEKLKQLVLNEGHHHHHH
MSLRSDSFEILRDCRALFLKHLGALLLDSGIISGSAIRAIQEGAGAYFDEMVSTTRRGSFSEEAHGLTSSRITLVGEDDLELGIRLDNLSARLFETTGGSLWRTHLRFVTLLRRPDLPKSANPIGPKGICQGLTTMFAASGASSIEQKLALLDRIEVYLLANLPGLYAEINDFLDRGGIEAAQATILGSPDGPKQADQSSANPLLALQQQLLARLPGGIASIQPPTGTGGAAASLLSQASLEQLIFRLNELDRQGAFRAQFKPGTSLSTESLIPELFSGSTAKASLPKALNSAELGIPSTATEGLAIDTLAIIFEAIFSEPTLPDTLKAAISSLQITLLKMAMKDASLFTDDKHPARLVIDRMGQAVLGLPTDVPARHPVCARLFEIASQLRSGNGDISAFQSALTQLDALVAERNNELAKSAAAYLPLLRQLDRRDEASIQTRHILDKLIEQKPPEAVQAFLNESWRKVLQLVWLENGPDSSQWQAHVTAIEELLWSFQPKTDPAERKSLAHRLPNILKLLKTGMERIGLPTEAQEAFLDDCFTLQTQALRAAPAAETGATSVIAATGLHASGSETVYGDVQSGQFVLNTLDFSDYQPGPARSLSCAIGDWLELRIDDSTTRVARICYISPNSQRTLLLNPDFGLALAIHPAILDRQLRAGEARIRSASSLFEIAASRALQKTTTNEGHHHHHH
